According to patent US20140235820A1, “METHODS AND COMPOSITIONS FOR MODULATING THE Wnt PATHWAY” (Genentech, Inc., priority 2010, published 2014):
Positions of bridges follow the written chain, without caps; N, C: chain ends.

Key:
[1] = target: T1, Dkk1 binding to LRP6 E1E2 (Homo sapiens, UniProt O75581); assay: Peptide inhibition of Dkk1 binding to LRP6 E1E2 (biolayer interferometry); conditions: peptide 20-fold higher than IC50; ligand three-fold higher than dissociation constant
T1 construct: construct E1E2-amino acids A20-E631 of LPR6; made in house; host or cells: Tni insect cells (baculovirus, secreted)
T1 sequence (O75581 20-631): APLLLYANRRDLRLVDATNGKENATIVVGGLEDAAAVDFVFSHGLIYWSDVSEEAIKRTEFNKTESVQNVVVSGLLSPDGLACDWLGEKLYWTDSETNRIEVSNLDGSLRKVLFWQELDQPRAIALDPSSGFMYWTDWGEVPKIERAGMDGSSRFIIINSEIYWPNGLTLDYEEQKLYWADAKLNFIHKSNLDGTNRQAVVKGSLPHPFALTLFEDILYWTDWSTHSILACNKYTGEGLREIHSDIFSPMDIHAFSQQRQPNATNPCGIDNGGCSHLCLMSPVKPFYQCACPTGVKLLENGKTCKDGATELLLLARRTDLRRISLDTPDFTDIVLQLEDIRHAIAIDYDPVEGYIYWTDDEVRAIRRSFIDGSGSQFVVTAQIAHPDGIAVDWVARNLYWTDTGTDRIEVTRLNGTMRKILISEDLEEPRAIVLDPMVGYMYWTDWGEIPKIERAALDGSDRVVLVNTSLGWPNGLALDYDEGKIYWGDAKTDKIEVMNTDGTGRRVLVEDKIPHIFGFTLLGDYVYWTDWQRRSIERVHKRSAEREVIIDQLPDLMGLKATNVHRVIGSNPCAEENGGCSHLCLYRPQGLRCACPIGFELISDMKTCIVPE
Procedure: (§1) FIG. 22. […] Binding was assessed by biolayer interferometry, as described in Example 1. Immobilized LRP6 E1E2 was exposed to protein ligand (Wnt 9b, Dkk1, or sclerostin) present in solution at a concentration three-fold higher than the measured dissociation constant for E1E2. Competing peptides were added at a saturating level (20-fold higher than the measured IC50 value). Peptide A: Ac-NSNAIKN-am; Peptide B: Ac-[…]-am (disulfide); Peptide C: Ac-[…]-am (disulfide)
(§2) Binding kinetics were measured by biolayer interferometry using an Octet Red instrument (ForteBio) as previously described (11). Streptavidin (SA) biosensors were loaded with biotinylated hLRP6 in 50 mMTris, pH 8, 300 mM NaCl, 5% (v/v) glycerol, and 0.05% (w/v) Triton X-100. The loaded biosensors were washed in the same buffer before carrying out association and dissociation measurements for the indicated times. The Kd of each interaction was determined using steady state-analysis through the Octet Red software v6.3. Each reported value represents an average of three or more experiments at different concentrations, with a fitted experimental curve for which the square of the correlation coefficient (R^2) is above 0.96.
(§3) To support the conclusions from protein mutagenesis, peptides were assayed for inhibitory activity toward binding of various ligands to LRP6. Three different peptides inhibited binding of the inhibitors Dkk1 and sclerostin to LRP6 E1E2 without affecting the binding of Wnt9B (FIG. 22).

[2] = target: T2, sclerostin binding to LRP6 E1E2 (Homo sapiens, UniProt O75581); assay: Peptide inhibition of sclerostin binding to LRP6 E1E2 (biolayer interferometry); conditions: peptide 20-fold higher than IC50; ligand three-fold higher than dissociation constant
T2 construct: construct E1E2-amino acids A20-E631 of LPR6; made in house; host or cells: Tni insect cells (baculovirus, secreted)
T2 sequence (O75581 20-631): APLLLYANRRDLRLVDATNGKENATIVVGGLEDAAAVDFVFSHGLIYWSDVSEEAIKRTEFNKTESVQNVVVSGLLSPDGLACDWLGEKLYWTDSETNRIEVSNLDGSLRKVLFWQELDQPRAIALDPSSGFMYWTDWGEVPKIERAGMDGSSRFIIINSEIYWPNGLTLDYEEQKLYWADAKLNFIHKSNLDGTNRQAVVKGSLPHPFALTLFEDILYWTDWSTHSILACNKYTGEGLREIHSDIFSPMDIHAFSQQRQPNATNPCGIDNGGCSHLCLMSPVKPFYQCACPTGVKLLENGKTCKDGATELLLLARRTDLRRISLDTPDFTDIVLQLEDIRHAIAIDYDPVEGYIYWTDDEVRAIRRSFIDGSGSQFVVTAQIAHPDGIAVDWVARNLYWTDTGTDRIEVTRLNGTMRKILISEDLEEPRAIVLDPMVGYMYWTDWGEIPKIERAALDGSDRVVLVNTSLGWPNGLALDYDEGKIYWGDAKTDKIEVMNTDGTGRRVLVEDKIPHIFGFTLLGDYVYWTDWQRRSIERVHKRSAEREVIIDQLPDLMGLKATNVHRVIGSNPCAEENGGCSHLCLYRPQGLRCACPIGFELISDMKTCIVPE
Procedure: as §1, §2, §3

inhibition of Dkk1 binding to LRP6 E1E2 [1]: inhibit binding
inhibition of sclerostin binding to LRP6 E1E2 [2]: inhibit binding
Substance: Ac-GSLCSNRIKPDTHCSS-am (disulfide) (Ac-GSLCSNRIKPDTHCSS-NH2; disulfide 4-14 (inferred)) [Peptide C]
